Columns and labels:
[1] = system: CD62Llow CD4-positive or CD8-positive T cells; assay: Cytokine ELISA (IFN-γ, IL-17) of CD62Llow lymph node T cells stimulated with antigen-loaded dendritic cells; format: cell-based, mice
Source text: T cells were stimulated with immobilized anti-CD3 monoclonal antibodies or antigen-pulsed BM-DCs in CM. Supernatants were harvested and assayed for IFN-γ, IL-4, and IL-17 content by a quantitative “sandwich” enzyme immunoassay using a murine IFN-γ, IL-4, and IL-17 ELISA kit (Genzyme), according to the manufacturer's protocol.
The inventors investigated whether T cells primed with synthesized DDX3X antigen could recognize CD133-positive melanoma cells.
The CD62L^low CD4-positive or CD8-positive T cells (1×10^5 cells) isolated from the lymph nodes were stimulated with 1×10^4 dendritic cells in 200 μl of complete medium (CM) for 48 hours in a 96-well plate. The dendritic cells used for stimulation were stimulated overnight with the same number of irradiated CD133-positive tumor cells or CD133-negative tumor cells (5,000 cGy), or synthesized DDX3X (5 μg/ml). The dendritic cells were purified with CD11c microbeads prior to co-culture.

[2] = system: CD3-positive T cells from peripheral blood; assay: Detection of DDX3X-responding IFN-γ-producing T cells in peripheral blood (co-culture with DDX3X-pulsed dendritic cells, ELISA); format: cell-based, human; parameters: key to DDX3X-specific T cell: “Yes” means detection of DDX3X-specific T cells in blood; “No” means no detection of DDX3X-specific T cells in blood; settings: for DDX3X-specific T cell: DC pulsed with DDX3X 3.3 μg/ml, co-culture 24 hours, IFN-γ
Experimental: Peripheral blood (15 ml) was collected after informed consent. A mononulclear cell fraction was collected by density-gradient centrifugation using Lymphoprep(trade name) (Cosmo Bio), and CD14^+ cells were isolated with CD14 microbeads and autoMACS. The CD14^+ cells were cultured with rhGM-CSF (1 ng/ml, a gift from Kirin) and rhIL-4 (10 ng/ml, R&D systems), and differentiated into dendritic cells by day 5. The dendritic cells were cultured overnight in medium containing synthesized DDX3X protein (3.3 μg/ml) or the same concentration of OVA, and CD11c-positive cells purified with CD11c microbeads and autoMACS were used as antigen-presenting cells. In order to remove naive T cells and regulatory T cells from the CD14 fraction cells, CD62L^high cells were removed by using anti-CD62L antibody (1H3)-conjugated Dynabeads. The CD62L^low CD14^− cells were cultured for 48 hours on a BD BioCoat(trade name) T cell activation plate (Becton Dickinson), and cultured for 4 days in medium containing 20 U/ml of rhIL-2 (a gift from Shionogi). FACS confirmed that 95% or more of the cells were CD3-positive T cells, and the CD3-positive T cells were used as responding cells. The responding cells (1×10^5) and antigen-presenting cells (1×10^4) were co-cultured for 24 hours in a 200-μl medium in a round-bottom 96-well plate, and the IFN-γ concentration was measured by ELISA using the supernatant collected after co-culture. Unpulsed dendritic cells, DDX3X-pulsed dendritic cells, and OVA-pulsed dendritic cells were used as the antigen-presenting cells. In Table 3, “Yes” means that IFN-γ production from T cells was confirmed with significant difference only in a co-culture with the DDX3X-pulsed dendritic cells. In the table, “% Treg” and “% Teff” represent the proportions of the regulatory T cells and the effector T cells, respectively, with respect to the total number of CD4^+ T cells as determined by the FACS analysis of the mononulclear cell fraction immediately after isolation from the peripheral blood. CD62L^high CD25^+CD4^+ T cells and CD62L^low CD4^+ T cells were used as regulatory T cells (Treg) and effector T cells (Teff), respectively, in the FACS analysis, as reported in Koyama K, Kagamu H, et al. Reciprocal CD4^+ T-cell balance of effector CD62L^low CD4^+ and CD62L^high CD25^+ CD4^+ regulatory T cells in small cell lung cancer reflects disease stage. Clin Cancer Res. 2008; 14: 6770-9. Detection of DDX3X-responding T cells was not possible in any of the healthy individuals (HV), small cell lung cancer patients with distal metastasis (SCLC-ED), and cured small cell lung cancer patients. However, the experiment found the presence of DDX3X-responding, specific IFN-γ-producing T cells in 5 of 12 small cell lung cancer (SCLC-LD) patients with no distal metastasis.

[3] = T cells from lymph nodes draining DC pulsed with synthesized DDX3X, stimulated 48 hours with DC loaded with CD133-positive or CD133-negative tumor cells

B1: DEAD/H (Asp-Glu-Ala-Asp/His) box polypeptide 3, X-linked (protein, listed as Homo sapiens)
chain: MSHVAVENALGLDQQFAGLDLNSSDNQSGGSTASKGRYIPPHLRNREATKGFYDKDSSGWSSSKDKDAYSSFGSRSDSRGKSSFFSDRGSGSRGRFDDRGRSDYDGIGSRGDRSGFGKFERGGNSRWCDKSDEDDWSKPLPPSERLEQELFSGGNTGINFEKYDDIPVEATGNNCPPHIESFSDVEMGEIIMGNIELTRYTRPTPVQKHAIPIIKEKRDLMACAQTGSGKTAAFLLPILSQIYSDGPGEALRAMKENGRYGRRKQYPISLVLAPTRELAVQIYEEARKFSYRSRVRPCVVYGGADIGQQIRDLERGCHLLVATPGRLVDMMERGKIGLDFCKYLVLDEADRMLDMGFEPQIRRIVEQDTMPPKGVRHTMMFSATFPKEIQMLARDFLDEYIFLAVGRVGSTSENITQKVVWVEESDKRSFLLDLLNATGKDSLTLVFVETKKGADSLEDFLYHEGYACTSIHGDRSQRDREEALHQFRSGKSPILVATAVAARGLDISNVKHVINFDLPSDIEEYVHRIGRTGRVGNLGLATSFFNERNINITKDLLDLLVEAKQEVPSWLENMAYEHHYKGSSRGRSKSSRFSGGFGARDYRQSSGASSSSFSSSRASSSRSGGGGHGSSRGFGGGGYGGFYNSDGYGGNYNSQGVDWWGN
IFN-γ and IL-17 secretion by DDX3X-specific CD4-positive T cells [1, 3]: secreted IFN-γ and IL-17 in a melanoma CSC-specific manner | response of DDX3X-specific CD8-positive T cells [1, 3]: responded to both CD133-negative and CD133-positive melanoma cells | cytokine production by melanoma CSC-specific CD4-positive T cells ([1]; T cells primed with vaccinated CD133-positive melanoma cells, stimulated with DC pulsed with synthesized DDX3X (5 μg/ml)): produced cytokines in a DDX3X-specific manner | cytokine production upon DDX3X stimulation compared with stimulation with the melanoma CSC itself ([1]; melanoma CSC-specific CD4-positive T cells): produced even more cytokines | DDX3X-specific T cell ([2]; Cured SCLC subjects): No | DDX3X-specific T cell ([2]; HV (healthy individuals)): No | DDX3X-specific T cell ([2]; SCLC-ED subjects): No | DDX3X-specific T cell ([2]; SCLC-LD subjects): Yes and No | detection of DDX3X-responding T cells ([2]; healthy individuals (HV), SCLC-ED and cured small cell lung cancer patients): not possible | patients with DDX3X-responding, specific IFN-γ-producing T cells ([2]; small cell lung cancer (SCLC-LD) patients with no distal metastasis): 5 of 12
